Measurements: patent US7879859B2, “Diagnosis and treatment of type 2 diabetes and other disorders” (Merck Sharp & Dohme Corp., priority 2005, dated 2011)
“And” between values parts separate entries of the source, which are not always exact repeats. Identical values can stand only once. d = 2'-deoxy (DNA); r = 2'-OH (RNA)

B1: si-SST3: pool of three pairs of siRNA oligos against rat sst3 (SEQ ID NO: 9-14) (nucleic acid)
chain 1: CCUUUCGGCUCUCUCAUGUTT
chain 2: GGGUUUGCUGGGCAAUUCATT
chain 3: CUGACGAACUCUUCAUGCUTT
chain 4: ACAUGAGAGAGCCGAAAGGTT
chain 5: UGAAUUGCCCAGCAAACCCTT
chain 6: AGCAUGAAGAGUUCGUCAGTT
modifications: sugars from the 5' end r19 d2, backbone not given here

Legend:
isolated mouse islets = experiment: Glucose-stimulated insulin secretion (GSIS) in isolated mouse islets; assay type: cell-based; conditions: 10 nM Octreotide, FIG. 1
Experimental: Pancreatic islets of Langerhans were isolated from the pancreas of normal C57BL/6J mice (Jackson Laboratory, Maine) by collagenase digestion and discontinuous Ficoll gradient separation, a modification of the original method of Lacy and Kostianovsky (Lacy et al., Diabetes 16:35-39, 1967). The islets were cultured overnight in RPMI 1640 medium (11 mM glucose) before GSIS assay. To measure GSIS, islets were first preincubated for 30 minutes in the Krebs-Ringer bicarbonate (KRB) buffer with 2 mM glucose (in petri dishes). The KRB medium contains 143.5 mM Na^+, 5.8 mM K^+, 2.5 mM Ca^2+, 1.2 mM Mg^2+, 124.1 mM Cl^−, 1.2 mM PO4^3−, 1.2 mM […], 25 mM CO3^2−, 2 mg/ml bovine serum albumin (pH 7.4). The islets were then transferred to a 96-well plate (one islet/well) and incubated at 37° C. for 60 minutes in 200 μl of KRB buffer with 2 or 16 mM glucose, and other agents to be tested such as octreotide and a SST3 antagonist. (Zhou et al., J. Biol. Chem. 278:51316-51323, 2003.) Insulin was measured in aliquots of the incubation buffer by ELISA with a commercial kit (ALPCO Diagnostics, Windham, N.H.).

sst3 mRNA = experiment: sst3 knockdown by Taqman real-time PCR; assay type: cell-based, rat; conditions: 48 hours after siRNA treatment; INS-1 832/13 cells
Experimental: The degree of gene knockdown by the siRNA oligos was quantified by Taqman real-time PCR also at 48 hours after electroporation. The method consistently obtained >70% knockdown of the target genes mRNA. We used PDE3b (phosphodiesterase 3B) and GCK (glucokinase) as two positive controls. As shown in Example 5, Table 6 (infra), compared to control-shocked INS-1 cells (using random sequence siRNA oligos), knocking down PDE3b increased GSIS by 1.5 to 3 fold, consistent with its role in hydrolyzing cAMP, a key positive mediator of GSIS.
The degree of sst3 knockdown was also examined 48 hours after siRNA treatment using Taqman real-time PCR. The rat sst3 specific probes were designed using Primer Express Software (Applied Biosystem) based on SEQ ID NO: 7 (Forward Primer: […] (SEQ ID NO: 15); Reverse Primer: […] (SEQ ID NO: 16); Probe: […] (SEQ ID NO: 17)). We observed about 55-75% reduction of sst3 mRNA in siRNA-treated cells.

INS-1 (832/13) cells = experiment: GSIS assay after siRNA mediated gene knockdown; assay type: cell-based, rat; conditions: compared to random sequence siRNA, 48 hours after electroporation
Experimental: Three 21-mer siRNA oligos were designed against each candidate gene and used as a pool at the final concentration of 20 uM. The siRNA oligos were delivered to the cells by Nucleofector Device (Amaxa, Gaithersburg, Md.). The INS-1 (832/13) cells were trypsinized, centrifuged, and resuspended in 100 ul Nucleofector solution V (2.25×10^6 cells per reaction). Seven and a half microliters of pooled siRNA were then added to the cell suspension. The cells were electroporated with Amaxa Nucleofector Device program T21. After electroporation, the cells were transferred and split into 9 wells in 96-well plate with 200 ul of regular culture medium (RPMI 1640 with 10% FCS and 11 mM glucose).
GSIS assays were performed after 48 hours. Prior to the assay, cells were washed once with glucose-free Krebs-Ringer Bicarbonate (KRB) medium and cells were incubated with the KRB medium for another 2 hours. The medium were replaced with fresh KRB supplemented with 2, 8, and 16 mM glucose and the cells were incubated for another 2 hours. Supernatants were taken out at the end of incubation for insulin measurement by Ultrasensitive Rat Insulin ELISA kit (ALPCO, Salem, N.H.).
GSIS assays were performed 48 hours after electroporation. The ratios of insulin concentration measured between 8 mM and 2 mM (G8/G2) and 16 mM and 2 mM (G16/G2) glucose treatments are functional readouts for GSIS. […]

Molecule	Effect on GSIS (isolated mouse islets)	Reduction of sst3 mRNA (sst3 mRNA)	Normalized fold of stimulation of GSIS, G8/G2 (INS-1 (832/13) cells; insulin ratio 8 mM/2 mM glucose)	Normalized fold of stimulation of GSIS, G16/G2 (INS-1 (832/13) cells; insulin ratio 16 mM/2 mM glucose)
C[C@@H](O)[C@@H]1NC(=O)[C@H](CCCCN)NC(=O)[C@@H](Cc2c[nH]c3ccccc23)NC(=O)[C@H](Cc2ccccc2)NC(=O)[C@@H](NC(=O)[C@H](N)Cc2ccccc2)CSSC[C@@H](C(=O)N[C@H](CO)[C@@H](C)O)NC1=O [Octreotide]	significantly suppressed			
B1		55-75%	2.9 and 3 and 2.8	4.4 and 2.9 and 2.7 and 4.3
